Measured values published in the RNAGym collection of RNA variant scans (doi:10.1073/pnas.2313332121).

B1: TPR t1 (parent)
chain: GACCAAUCUGCCCUCAGAGCUCGAGAACAUCUUCGGAUGCAGAGGAGGCAGGCUUCGGUGGCGCGAUAGCGCCAACGUCCUCAACCUCCAAUGCAUCCCACCACAUGAUGAUGCCUGAAGAGCCUUGGUUUUUUG

Variants of: B1
Assay: polymerase ribozyme fitness, log enrichment relative to wild type (log ratio); higher = more active; in vitro selection for triplet polymerase activity
Method in brief: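 Genotype fitness is the logarithm of its enrichment divided by wild-type enrichment, using inverse-variance-weighted averages of replicates. That logarithm is base 2. Enrichment was measured by Illumina sequencing of input and output libraries from one triplicate in vitro selection round, with frozen incubation at −7 °C, on PCR-built, transcribed mutant libraries of each subunit of a heterodimeric triplet polymerase ribozyme, retaining genotypes with ≥10 input reads and ≥1 read per output.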

Row | Variant | polymerase ribozyme fitness (log ratio)
1 | G61C C98U | -2.55
2 | G61C C101A U112G | -3.98
3 | G61C C101U | -1.77
4 | G61C C102U | -3.06
5 | G61C C114G | -4.27
6 | G61C C115U | -3.07
7 | G61C G63A | -4.78
8 | G61C G63C G117C U126A G135U | -4.51
9 | G61C G63U | -5.51
10 | G61C G65A | -4.9
11 | G61C G65A C82U | -7.8
12 | G61C G77U U112A | -2.37
13 | G61C G120C | -1.04
14 | G61C U78A U116G | -1.8
15 | G61C U78G U130G | -4.62
16 | G61C U92A C98U C101U U106A U112G G120C | -7.61
17 | G61C U92C | -2.59
18 | G61C U106C G135U | -3.18
19 | G61C U116C | -2.77
20 | G61U A66U U112A | 0.256
21 | G61U A91U | -1.05

Row | Variant | polymerase ribozyme fitness (log ratio)
22 | G61U A108C | -3.81
23 | G61U A111C | -0.083
24 | G61U A111G | 0.628
25 | G61U C62A | -5.14
26 | G61U C70U | -2.03
27 | G61U C72U | -0.409
28 | G61U C72U U131A | -0.274
29 | G61U C73A U78A | -1.43
30 | G61U C79A C99A G120C | -6.8
31 | G61U C82A C89G C101A C102A U112C C123A | -7.12
32 | G61U C86A C115U | -1.4
33 | G61U C88U | -0.259
34 | G61U C89G | -1.53
35 | G61U C97A C124A | -2.39
36 | G61U C102G G120C | -6.46
37 | G61U C104U A108C A121U | -2.95
38 | G61U C104U U116A | -2.46
39 | G61U C114G | -1.85
40 | G61U G63A | -4.12
41 | G61U G69C C72U A111C | -6.94
42 | G61U G69U G120A | 0.591

Row | Variant | polymerase ribozyme fitness (log ratio)
43 | G61U G77A U130G | -0.935
44 | G61U G77C C79U | -0.442
45 | G61U G93A | 0.0678
46 | G61U G107A U112C G122A | -5.04
47 | G61U G113U | -1.12
48 | G61U G117C | -2.09
49 | G61U G117U | -1.34
50 | G61U G120A | 0.595
51 | G61U U78G C79U G122U | 0.33
52 | G61U U78G U112G | 0.877
53 | G61U U81G C86U G120U U133A | -4.06
54 | G61U U87A | -0.452
55 | G61U U87G U106A | -0.129
56 | G61U U92A | -2.49
57 | G61U U96C | 0.151
58 | G61U U109A U125A | -5.58
59 | G61U U109G | -4.68
60 | G61U U116A | -3.38
61 | G61U U129G | -1.79
62 | G61U U131C | 0.233
63 | G61U U133A | -0.172

Row | Variant | polymerase ribozyme fitness (log ratio)
64 | C62A A68G C72U | -3.88
65 | C62A A74C | -2.68
66 | C62A A75U A111C | -1.81
67 | C62A A90C U112A | -2.63
68 | C62A A90G | -0.841
69 | C62A C72U A75C C85A U129C | -2.55
70 | C62A C79A G117C | -6
71 | C62A C97U | -1.52
72 | C62A C97U U106A | -1.52
73 | C62A C98U C123A | -2.16
74 | C62A C101U C114U C124A | -3.63
75 | C62A C104A A119U | -3.63
76 | C62A C115U | -2.53
77 | C62A G110C | -5.17
78 | C62A G110U | -2.92
79 | C62A G113U C114G | -4.19
80 | C62A G120A | -0.339
81 | C62A G120U | 0.191
82 | C62A U78G U87C | -1.47
83 | C62A U87C | -0.344
